This note sets out measurements from patent publication US20040076995A1, “Nurr1 transcription factor 1-box mutants having monomeric transcriptional activation activity” (priority 2001, published 2004).

Residue numbers refer to the chain shown, from its start. In names and notes the source's numbering stands.

In data set [1] the target is T1, VP16-RXR (herpes simplex VP16 trans-activation domain followed by the complete coding sequence of human RXRα) (herpes simplex; human, UniProt P19793 1-462).
T1 construct: Two-hybrid prey, expressed in JEG3 cells; also called pCMX-VP16-RXR
T1 sequence: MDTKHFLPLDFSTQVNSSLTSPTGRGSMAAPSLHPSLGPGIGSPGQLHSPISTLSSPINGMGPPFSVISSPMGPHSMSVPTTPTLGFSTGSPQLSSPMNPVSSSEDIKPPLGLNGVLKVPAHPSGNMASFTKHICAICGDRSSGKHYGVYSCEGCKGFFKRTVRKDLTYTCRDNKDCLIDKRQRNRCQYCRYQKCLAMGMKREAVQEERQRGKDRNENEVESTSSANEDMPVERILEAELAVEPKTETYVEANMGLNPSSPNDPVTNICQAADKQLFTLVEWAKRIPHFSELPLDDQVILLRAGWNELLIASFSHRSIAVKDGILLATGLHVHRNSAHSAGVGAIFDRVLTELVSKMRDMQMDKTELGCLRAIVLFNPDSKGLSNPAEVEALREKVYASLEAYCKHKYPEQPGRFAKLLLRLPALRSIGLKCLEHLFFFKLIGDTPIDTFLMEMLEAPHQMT
The data set can be described thus: mammalian two-hybrid assay, JEG3 cells.

Data set [2] has as its system NGFI-B response element (NBRE) reporter. Briefly: Monomeric reporter gene activation, NBRE reporter in 293 cells (full-length receptor). It counts as cell-based, human. The settings on record: three copies of NBRE reporter, effect of the mutation vs wild-type Nurr1. The procedure:
The monomeric activity was examined in 293 cells. The full-length receptor derivatives were studied using a reporter gene regulated by three copies of the NGFI-B binding site (NBRE; FIG. A).
The ability of the mutants to activate reporter gene expression as monomers were studied in human embryonic kidney 293 cells. The cells were maintained in Dulbecco's modified Eagles medium with 10% fetal calf serum. Transfections were carried out as with JEG3 cells except that a reporter regulated by three copies of the NGFI-B (nerve growth factor inducible-B)response element (Wilson et al., 1991) (NBREs) was used. The transcriptional activities of the mutated ligand-binding domains were assessed as fusions to the Gal4 DNA-binding domain and a reporter gene with four copies of the Gal4-binding sites was used. All the transfection experiments were performed in quadruplicate dishes and each experiment has been repeated at least twice with essentially identical results. The results of a representative experiment are shown.
(In general: A reporter such as luciferase makes a cellular process visible.)

Data set [3] deals with Nurr1-RXR heterodimer. Briefly: Nurr1-RXR heterodimer-mediated transactivation, βRE luciferase reporter in JEG3 cells. It counts as cell-based, human. To be noted: βRE-tk luciferase reporter, RXR ligand SR11237 1 μM, effect of the mutation vs wild-type Nurr1. The procedure: The wild-type and mutated Nurr1 derivatives were transfected in JEG3 cells. The ability to transactivate was assessed using a luciferase reporter gene driven by three copies of the hRARβ2 promoter RARE (βRE) upstream of a thymidine kinase promoter.
The influence of the I-box mutations on Nurr1 transcriptional activity and on the ability to interact with RXR was examined as described by Perlmann and Jansson 1995, Zetterström et al. 1996, and Castro et al. 1999. Nurr1-RXR heterodimer-mediated transactivation was studied in human chorion carcinoma JEG3 cells. The cells were maintained in minimum essential medium supplemented with 10% fetal calf serum. Transfections were performed in quadruplicates in 24-well plates using the calcium phosphate precipitation method. The cells were plated 24 h prior to the transfection. Each well was transfected with 100 ng of the expression vector for the Nurr1 variants, 100 ng of a reporter plasmid, and 200 ng of βgalactoside plasmid that was used as an internal control for transfection efficiency. The luciferase reporter used was driven by three copies of the retinoid acid response element (RARE) of the human retinoid acid receptorβ2 (hRARβ2) gene promoter (βRE) upstream of the thymidine kinase promoter. 6-8 hours after transfection, the cells received fresh medium supplemented with 10% charcoal-stripped fetal calf,serum and RXR ligand (SR11237;1 μM). The cells were harvested 24 hours late and lysed. The cells extracts were assayed for luciferase and βgalactosidase activity. The ability of the Nurr1 mutants to interact with RXR was examined using the mammalian two-hybrid assay. The ligand-binding domains (amino acids 353-598; LBD) of both wild-type and mutated Nurr1 variants were cloned in frame with the yeast Gal4 DNA-binding domain (amino acids 1-147) in the pCMX-Gal4 expression vector (Perlmann and Jansson 1995). JEG3 cells were cotransfected with pCMX-Gal4-Nurr1-LBD derivatives and pCMX-VP16-RXR containing the herpes simplex VP16 trans-activation domain followed by the complete coding sequence of human RXRα. A reporter gene with four copies of the Gal4-binding sites was used.

For data set [4], the target named is Nurr1 wild type/RXR heterodimer (Mus musculus / Homo sapiens?, UniProt Q06219;P19793 Q06219:1-598,P19793:1-462). The data set can be described thus: EMSA; heterodimer; 10 mM Tris pH 8.0, 40 mM KCl, poly(dI-dC), on ice. The settings on record: label: 32P (Klenow fill-in). The procedure: (§1) The DNA-binding experiments were carried out as described by Castro et al. 1999. Briefly, Nurr1 and RXR proteins for gel mobility shift assays were produced by coupled in vitro transcription and translation in reticulocyte lysates according to the manufacturer's instructions (TNT Quick Coupled Trans cription/Translation System™; Promega). The proteins were incubated in a binding buffer containing 10 mM Tris (pH 8.0), 40 mM KCI, 0.05% NP-40, 6% glycerol, 1 mM DTT, 0.2mg poly(dI-dC) and protease inhibitors. βRE-probe (agcttaagg[…]ctcgcat; SEQ ID NO:9) was labelled with ³²P by fill-in reaction using Klenow fragment. After addition of the probe, the reactions were incubated on ice for 20 min. Protein-DNA complexes were resolved by electrophoresis on 4% non-denaturating polyacrylamide gel in 0.5×TBE. After electrophoresis, the gels were dried for autoradiography.
(In general: In EMSA bound probe runs differently from free probe, usually more slowly.)

In data set [5] the target is Nurr1 PEL(560-562)AAA + RXR (Mus musculus / Homo sapiens?, UniProt Q06219;P19793 Q06219:1-598,P19793:1-462, Nurr1 P560A,E561A,L562A). The data set can be described thus: EMSA; no heterodimer on DNA; monomeric binding retained. To be noted: label: 32P (Klenow fill-in). The procedure: as §1
Data set [6] has as its target Nurr1 P560A + RXR (Mus musculus / Homo sapiens?, UniProt Q06219;P19793 Q06219:1-598,P19793:1-462, Nurr1 P560A). The data set is described as above. To be noted: label: 32P (Klenow fill-in). The protocol:
as §1

The target of data set [7] is Nurr1 KLL(554-556)AAA (Mus musculus, UniProt Q06219 Q06219:1-598, K554A,L555A,L556A). Briefly: EMSA; monomeric DNA binding not influenced; betaRE is the only probe described. The settings on record: label: 32P (Klenow fill-in). The protocol: as §1
Data set [8] addresses Nurr1 GKL(557-559)AAA (Mus musculus, UniProt Q06219 Q06219:1-598, G557A,K558A,L559A). The description is as above. The settings on record: label: 32P (Klenow fill-in). The protocol:
as §1

The target in data set [9] is Nurr1 P560A (Mus musculus, UniProt Q06219 Q06219:1-598, P560A). The data set is described as above. To be noted: label: 32P (Klenow fill-in). The procedure: as §1
In data set [10] the target is Nurr1 PEL(560-562)AAA (Mus musculus, UniProt Q06219 Q06219:1-598, P560A,E561A,L562A). The data set is described as above. The settings on record: label: 32P (Klenow fill-in). The procedure: as §1

B1: Gal4 DNA-binding domain fused to Nurr1 ligand-binding domain (amino acids 353-598) KLL(554-556)AAA (other, yeast;mouse, UniProt P04386 1-147, looked up)
chain: MKLLSSIEQACDICRLKKLKCSKEKPKCAKCLKNNWECRYSPKTKRSPLTRAHLTEVESRLERLEQLFLLIFPREDLDMILKMDSLQDIKALLTGLFVQDNVNKDAVTDRLASVETDMPLTLRQHRISATSSSEESSNKGQRQLTVSQDPSPPSPPVSLISALVRAHVDSNPAMTSLDYSRFQANPDYQMSGDDTQHIQQFYDLLTGSMEIIRGWAEKIPGFADLPKADQDLLFESAFLELFVLRLAYRSNPVEGKLIFCNGVVLHRLQCVRGFGEWIDSIVEFSSNLQNMNIDISAFSCIAALAMVTERHGLKEPKRVEELQNKIVNCLKDHVTFNNGGLNRPNYLSAAAGKLPELRTLCTQGLQRIFYLKLEDLVPPPAIIDKLFLDTLPF
notes: range 1-147;range 353-598; Two-hybrid bait, expressed in JEG3 cells; also called pCMX-Gal4-Nurr1-LBD derivative KLL(554-556)AAA
B1: in data set [1], the binding result is listed as “no binding”.

B2: Gal4 DNA-binding domain fused to Nurr1 ligand-binding domain (amino acids 353-598) GKL(557-559)AAA (other, yeast;mouse, UniProt P04386 1-147, looked up)
chain: B1 chain with A349K, A350L, A351L, G352A, K353A, L354A
notes: range 1-147;range 353-598; Two-hybrid bait, expressed in JEG3 cells; also called pCMX-Gal4-Nurr1-LBD derivative GKL(557-559)AAA
Regarding B2, in [1], the binding result is recorded as “no binding”.

B3: Gal4 DNA-binding domain fused to Nurr1 ligand-binding domain (amino acids 353-598) PEL(560-562)AAA (other, yeast;mouse, UniProt P04386 1-147, looked up)
chain: B1 chain with A349K, A350L, A351L, P355A, E356A, L357A
notes: range 1-147;range 353-598; Two-hybrid bait, expressed in JEG3 cells
For B3, in data set [1], the binding result is listed as “no binding”.

B4: P560A: mouse Nurr1 I-box mutant, Pro560 substituted by alanine (protein)
chain: MPCVQAQYGSSPQGASPASQSYSYHSSGEYSSDFLTPEFVKFSMDLTNTEITATTSLPSFSTFMDNYSTGYDVKPPCLYQMPLSGQQSSIKVEDIQMHNYQQHSHLPPQSEEMMPHSGSVYYKPSSPPTPSTPSFQVQHSPMWDDPGSLHNFHQNYVATTHMIEQRKTPVSRLSLFSFKQSPPGTPVSSCQMRFDGPLHVPMNPEPAGSHHVVDGQTFAVPNPIRKPASMGFPGLQIGHASQLLDTQVPSPPSRGSPSNEGLCAVCGDNAACQHYGVRTCEGCKGFFKRTVQKNAKYVCLANKNCPVDKRRRNRCQYCRFQKCLAVGMVKEVVRTDSLKGRRGRLPSKPKSPQDPSPPSPPVSLISALVRAHVDSNPAMTSLDYSRFQANPDYQMSGDDTQHIQQFYDLLTGSMEIIRGWAEKIPGFADLPKADQDLLFESAFLELFVLRLAYRSNPVEGKLIFCNGVVLHRLQCVRGFGEWIDSIVEFSSNLQNMNIDISAFSCIAALAMVTERHGLKEPKRVEELQNKIVNCLKDHVTFNNGGLNRPNYLSKLLGKLAELRTLCTQGLQRIFYLKLEDLVPPPAIIDKLFLDTLPF
B4: the “ability to activate reporter gene expression as monomers (monomeric activity)” value in data set [2] is given as “no effect”. Besides, the “ability of Nurr1 to promote RXR-mediated transactivation” value in data set [3] is “abolished”.

B5: betaRE probe (hRARbeta2 promoter RARE) (dsDNA)
DNA 1: AGCTTAAGGGGTTCACCGAAAGTTCACTCGCAT
DNA 2: ATGCGAGTGAACTTTCGGTGAACCCCTTAAGCT
With B5, the binding result is given as “binds” in [4]; “no binding” in [5]; “no binding” in [6]; “binds” in data set [7]; “binds” in [8]; “binds” in data set [9]. For the same molecule, the binding result in data set [10] was “binds”.
